The values that follow come from patent publication US20260265359A1.

In assay [1] the target is recombinant human VEGF-A165 (human) (UniProt P15692). Briefly: ELISA on plate-coated recombinant human VEGF-A165; anti-human IgG1-Fc-HRP, OD450. For orientation: In an ELISA, binding on a coated surface is turned into a signal by an enzyme label.
For assay [2] the target is unchanged.
In assay [3] the target is T1, recombinant human PIGF (human) (UniProt P49763).
T1 sequence (looked up): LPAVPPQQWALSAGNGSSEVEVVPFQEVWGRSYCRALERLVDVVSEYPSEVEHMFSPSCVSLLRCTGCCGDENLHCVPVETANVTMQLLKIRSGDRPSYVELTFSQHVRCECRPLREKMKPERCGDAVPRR
In words: ELISA on plate-coated recombinant human PIGF; anti-human IgG1-Fc-HRP, OD450.

Assay [4] concerns the target T1, recombinant human PIGF (human). In words: SPR Biacore, 25 C; test antibody captured by anti-human IgG (Fc) on CM5 chip, target protein as analyte; 1:1 model. On the technique in general: In SPR one partner is held on a chip, and binding of the other changes the refractive index at the surface.
Assay [5] concerns the target recombinant human VEGF-A165 (human) (UniProt P15692). Described as above.
For assay [6], the target named is T2, recombinant human VEGF-B167 (human) (UniProt P49765).
T2 sequence (looked up): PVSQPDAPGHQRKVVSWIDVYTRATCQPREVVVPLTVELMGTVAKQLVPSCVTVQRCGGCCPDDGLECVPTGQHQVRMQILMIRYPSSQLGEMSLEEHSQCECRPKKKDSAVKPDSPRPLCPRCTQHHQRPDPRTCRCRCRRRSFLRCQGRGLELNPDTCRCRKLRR
Described as above.

Assay [7] deals with T1, recombinant human PIGF (human). The description is as above. The source holds these as a separate data set.
For assay [8], the target named is recombinant human VEGF-A165 (human) (UniProt P15692). The assay is described as above. This is another data set of the same source.
Assay [9] concerns the target T2, recombinant human VEGF-B167 (human). The description is as above. This is another data set of the same source.
Assay [10] addresses recombinant human VEGF-A165 (human) (UniProt P15692). The source holds these as a separate data set.
In assay [11] the target is T2, recombinant human VEGF-B167 (human). In words: ELISA on plate-coated recombinant human VEGF-B167; anti-human IgG1-Fc-HRP, OD450.
For assay [12], the target named is recombinant human VEGF-A165 (human) (UniProt P15692). This is another data set of the same source.
Assay [13] has as its target T1, recombinant human PIGF (human). In words: ELISA on plate-coated recombinant human PIGF; anti-human IgG1-Fc-HRP, OD450. The source holds these as a separate data set.
Assay [14] deals with recombinant human Ang-2 (human) (UniProt O15123). Briefly: ELISA on plate-coated recombinant human Ang-2; anti-human IgG1-Fc-HRP, OD450.
Assay [15] deals with human IL-6R overexpressed on engineered CHO-S cells (human) (UniProt P08887). Briefly: FACS competition: antibody with biotinylated human IL-6 and CHO-S cells overexpressing human IL-6R; blocked: IL-6 binding to IL-6R.

Read-outs that look alike come from different tables or passages of the source.

Aflibercept (Fc fusion), sequence (chain): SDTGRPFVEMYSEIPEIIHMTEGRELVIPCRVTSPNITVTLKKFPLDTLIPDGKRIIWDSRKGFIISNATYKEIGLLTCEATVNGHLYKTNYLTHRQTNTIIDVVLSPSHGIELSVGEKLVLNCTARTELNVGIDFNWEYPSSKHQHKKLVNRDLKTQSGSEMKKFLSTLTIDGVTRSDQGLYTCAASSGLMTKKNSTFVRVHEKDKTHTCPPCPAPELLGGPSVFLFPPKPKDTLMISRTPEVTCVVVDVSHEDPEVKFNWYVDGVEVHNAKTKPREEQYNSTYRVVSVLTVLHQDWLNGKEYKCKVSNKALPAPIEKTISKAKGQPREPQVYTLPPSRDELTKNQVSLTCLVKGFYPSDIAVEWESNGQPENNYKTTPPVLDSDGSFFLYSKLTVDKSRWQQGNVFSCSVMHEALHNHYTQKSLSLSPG
recombinant human VEGF-A165 (human), sequence (P15692 other isoform, or with tags, fused parts or gaps limits assumed): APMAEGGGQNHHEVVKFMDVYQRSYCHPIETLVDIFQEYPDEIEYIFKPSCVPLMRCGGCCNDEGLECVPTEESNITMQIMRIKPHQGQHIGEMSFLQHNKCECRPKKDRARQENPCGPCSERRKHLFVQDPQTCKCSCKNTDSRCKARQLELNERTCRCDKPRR
Conbercept (Fc fusion), sequence (chain): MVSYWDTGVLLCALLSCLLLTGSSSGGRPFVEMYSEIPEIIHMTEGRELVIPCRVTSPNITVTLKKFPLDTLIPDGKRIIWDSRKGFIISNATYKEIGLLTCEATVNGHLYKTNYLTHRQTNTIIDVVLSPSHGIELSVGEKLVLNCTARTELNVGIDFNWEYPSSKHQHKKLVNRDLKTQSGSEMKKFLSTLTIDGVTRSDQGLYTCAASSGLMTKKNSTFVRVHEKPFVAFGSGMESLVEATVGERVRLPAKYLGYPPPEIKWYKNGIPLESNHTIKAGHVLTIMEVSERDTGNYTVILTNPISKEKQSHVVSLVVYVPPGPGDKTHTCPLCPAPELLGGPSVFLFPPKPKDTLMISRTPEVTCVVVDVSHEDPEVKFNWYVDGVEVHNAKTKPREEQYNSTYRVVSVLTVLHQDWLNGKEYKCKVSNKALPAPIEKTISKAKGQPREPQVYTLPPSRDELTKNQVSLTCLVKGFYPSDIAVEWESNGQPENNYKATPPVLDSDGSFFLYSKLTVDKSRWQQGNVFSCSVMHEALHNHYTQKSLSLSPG
human IL-6R overexpressed on engineered CHO-S cells (human), sequence (P08887 20-468, change not shown): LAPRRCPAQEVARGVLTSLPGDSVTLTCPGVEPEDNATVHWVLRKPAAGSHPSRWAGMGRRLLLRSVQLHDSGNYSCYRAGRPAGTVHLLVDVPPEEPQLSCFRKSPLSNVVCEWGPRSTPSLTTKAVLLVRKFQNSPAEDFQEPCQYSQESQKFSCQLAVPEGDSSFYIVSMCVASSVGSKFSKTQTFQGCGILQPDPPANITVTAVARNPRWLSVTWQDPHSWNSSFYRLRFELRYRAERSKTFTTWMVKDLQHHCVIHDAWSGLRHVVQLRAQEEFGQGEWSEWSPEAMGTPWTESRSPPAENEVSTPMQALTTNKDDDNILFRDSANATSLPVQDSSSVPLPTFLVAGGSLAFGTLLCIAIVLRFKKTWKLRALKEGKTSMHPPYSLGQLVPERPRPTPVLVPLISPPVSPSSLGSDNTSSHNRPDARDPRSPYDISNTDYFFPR
recombinant human Ang-2 (human), sequence (O15123 19-496 limits assumed): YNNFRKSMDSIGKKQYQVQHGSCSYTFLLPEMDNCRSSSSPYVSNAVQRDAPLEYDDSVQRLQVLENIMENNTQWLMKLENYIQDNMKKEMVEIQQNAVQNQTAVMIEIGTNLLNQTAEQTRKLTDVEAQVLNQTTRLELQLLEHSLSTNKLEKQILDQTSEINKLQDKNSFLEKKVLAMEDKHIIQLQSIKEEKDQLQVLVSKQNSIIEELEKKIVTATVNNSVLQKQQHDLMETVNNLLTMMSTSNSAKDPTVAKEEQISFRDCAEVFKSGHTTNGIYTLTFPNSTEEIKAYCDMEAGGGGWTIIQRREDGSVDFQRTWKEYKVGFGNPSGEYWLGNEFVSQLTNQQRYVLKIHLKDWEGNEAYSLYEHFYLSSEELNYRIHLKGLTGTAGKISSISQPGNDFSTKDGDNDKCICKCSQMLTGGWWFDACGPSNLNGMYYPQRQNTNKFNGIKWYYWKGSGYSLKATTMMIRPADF

What is called EC50 is the concentration needed to bring the measured effect to its halfway point. The Kd is the constant that tells how readily two partners part at equilibrium. As for Aflibercept (Fc fusion), the values for the EC50 in assay [1], in [3] and in [11] were 0.008 nM, 0.012 nM and 0.076 nM, respectively. Besides, the results for the IC50, inhibition of VEGF-A165-stimulated VEGFR-2 NF-AT luciferase reporter (HEK-293), luminescence in [2], in assay [10] and in assay [12] were 0.595 nM, 0.326 nM and 0.606 nM, respectively. The Kd in [4] stood at 0.106 nM; in assay [5], 3.44 pM; in [6] it was 1.37 nM; in assay [7], 0.148 nM; in assay [8], 2.57 pM; in assay [9], 1.85 nM.
Take Conbercept (Fc fusion): the EC50 in assay [1] was determined as 0.078 nM; in assay [3], 0.089 nM; in assay [13], 0.103 nM; in [11] it was 0.009 nM.
For Tie-2-Fc (Fc fusion), the EC50 in assay [14] stood at 8.32 nM.
In general, IC50 refers to the concentration that inhibits the measured activity by half. Read a low IC50 as inhibition by little substance. In assay [15], Vobarilizumab-Fc (Fc fusion) gave an IC50 of 0.524 nM.
